B1: TPR t1 (parent)
chain: GACCAAUCUGCCCUCAGAGCUCGAGAACAUCUUCGGAUGCAGAGGAGGCAGGCUUCGGUGGCGCGAUAGCGCCAACGUCCUCAACCUCCAAUGCAUCCCACCACAUGAUGAUGCCUGAAGAGCCUUGGUUUUUUG

Variants of: B1
Assay: polymerase ribozyme fitness, log enrichment relative to wild type (log ratio); higher = more active; in vitro selection for triplet polymerase activity
How it was run: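 Each subunit of a heterodimeric triplet polymerase ribozyme was represented by a PCR-built, transcribed mutant library that underwent triplicate single-round in vitro selection with frozen incubation at −7 °C. Extended constructs were recovered by gel excision, streptavidin-bead capture and RT-PCR, and Illumina sequencing of input and output libraries kept genotypes with ≥10 input reads and ≥1 read per output. Fitness is the logarithm of genotype enrichment relative to wild-type enrichment, from inverse-variance-weighted replicate averages, with a logarithm base of 2.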

First: A26G C53G G77A
Second: U9A U116C
The “polymerase ribozyme fitness (log ratio)” value of the first is lower: -2.93 for the first, 0.0652 for the second.

Going from G71A G77C C101G to C8G C12U G63A G122A C123U, the “polymerase ribozyme fitness (log ratio)” value rises from -2.79 to 0.85.

Going from C8A A37C to G17A C72G, the “polymerase ribozyme fitness (log ratio)” value falls from 0.0805 to -3.28.

Compared with C8A G117C, G48C G60C G110A is lower in “polymerase ribozyme fitness (log ratio)” value: -2.07 for the first, -2.42 for the second.

First: C11G C76U C99A U130G
Second: A46U G61A A66U G113U C123G U129A
The “polymerase ribozyme fitness (log ratio)” value of the first is lower: -6.95 for the first, -5.08 for the second.

Compared with C3G C13A, G10A C86A is higher in “polymerase ribozyme fitness (log ratio)” value: -3.57 for the first, -0.0637 for the second.

Compared with A41U A91C U92C, C49A G69U is higher in “polymerase ribozyme fitness (log ratio)” value: -2.44 for the first, 0.034 for the second.

First: U32C G44U U92G A118U U133A
Second: C20A A46C U78C A111C C114A
The “polymerase ribozyme fitness (log ratio)” value of the first is higher: -3.79 for the first, -3.99 for the second.

Compared with G71A U92A C94U C115G, G61A U112C is higher in “polymerase ribozyme fitness (log ratio)” value: -4.8 for the first, 1.57 for the second.

Going from G45A C53A U81C to G61A G77A A91G, the “polymerase ribozyme fitness (log ratio)” value falls from -0.267 to -2.58.

Compared with C11A G42U U106A, A2C A121G is higher in “polymerase ribozyme fitness (log ratio)” value: -3.49 for the first, 0.405 for the second.

Going from A43U G63C A100U C124G to C11U U96G, the “polymerase ribozyme fitness (log ratio)” value rises from -2.24 to -1.1.

C20U U106C and A6G G63U C124A G128U are within 0.2 log units of each other in “polymerase ribozyme fitness (log ratio)” value: -2.1 for the first, -1.92 for the second.

Going from U21A G63A to U21C G39C C56A, the “polymerase ribozyme fitness (log ratio)” value falls from -1.05 to -1.44.

Going from C12U C73U U81G C82G C123A to C12A C15U G71U A121C G127U, the “polymerase ribozyme fitness (log ratio)” value falls from 0.809 to 0.118.

First: G48U A111U U125G
Second: C12A U133A
The “polymerase ribozyme fitness (log ratio)” value of the first is lower: -4.47 for the first, -0.907 for the second.

Going from C82G U116G to C56A G122A, the “polymerase ribozyme fitness (log ratio)” value rises from -2.05 to -0.936.

First: A83C U106A
Second: A6C C11G C15U C102A G120A U133A
The “polymerase ribozyme fitness (log ratio)” value of the first is higher: 0.162 for the first, -2.14 for the second.

Going from A37C G52A G69U C114G C123U to C97U G122A, the “polymerase ribozyme fitness (log ratio)” value rises from -2.89 to -1.08.

Going from C62U A108G to U21G U38C, the “polymerase ribozyme fitness (log ratio)” value falls from -1.69 to -2.11.

Compared with C3G C86A, C31A G36C G60C C72G C98A C99A C124U G128U is lower in “polymerase ribozyme fitness (log ratio)” value: -3.1 for the first, -7.42 for the second.

First: C40G G69C
Second: C62U G69C C102G U130G
The “polymerase ribozyme fitness (log ratio)” value of the first is higher: -2.54 for the first, -7.34 for the second.

First: C89G U106A
Second: C73A A111C
The “polymerase ribozyme fitness (log ratio)” value of the first is lower: -2.51 for the first, 0.669 for the second.

First: A84C C124U
Second: G39U G61A C72G A103U
The “polymerase ribozyme fitness (log ratio)” value of the first is higher: 1.55 for the first, -5.55 for the second.

Going from C11A to C8U G61A A84C, the “polymerase ribozyme fitness (log ratio)” value rises from -1.27 to 0.393.

Compared with C13U G39A C70A C104U, G58C C98G is lower in “polymerase ribozyme fitness (log ratio)” value: -1.43 for the first, -5.66 for the second.

First: U78G C97G
Second: G39A C72G A105G
The “polymerase ribozyme fitness (log ratio)” value of the first is lower: -4.29 for the first, -2.86 for the second.

First: A5U C94U
Second: C11U G44A C79U A119U
The “polymerase ribozyme fitness (log ratio)” value of the first is higher: -1.16 for the first, -1.69 for the second.

First: C49G G61C
Second: C85G C114G
The “polymerase ribozyme fitness (log ratio)” value of the first is higher: -2.12 for the first, -3.82 for the second.

Going from C3A A105G to U7G A105C G120U, the “polymerase ribozyme fitness (log ratio)” value rises from -4.78 to -0.828.

Compared with C28U A43G G113A, U33G G52C U78A C98A U112G U116G is lower in “polymerase ribozyme fitness (log ratio)” value: -3.91 for the first, -7.02 for the second.

First: C72A A121C
Second: G17U C89U
The “polymerase ribozyme fitness (log ratio)” value of the first is higher: 1.46 for the first, -1.77 for the second.

Going from C49A C86G C101A A118U to U81C C86U U116G, the “polymerase ribozyme fitness (log ratio)” value falls from -1.56 to -3.1.

Going from C70G C97U U116A G117A to A2G C64U C89G U112A, the “polymerase ribozyme fitness (log ratio)” value rises from -5.25 to -1.2.

Going from G47A U92C to G17A U21A G44C A46C C73G, the “polymerase ribozyme fitness (log ratio)” value falls from -2.73 to -5.53.

First: G48A C73U C85A
Second: C97U U112A
The “polymerase ribozyme fitness (log ratio)” value of the first is lower: -1.26 for the first, 0.716 for the second.

Going from C8U C13A G44U C72A C79U C85A to U7G A41G C53A G61U C79U A90U A111C, the “polymerase ribozyme fitness (log ratio)” value rises from -3.38 to -3.04.

Compared with C11U U87G G113U, A2C C101A U106A C115U A119G is higher in “polymerase ribozyme fitness (log ratio)” value: -4.06 for the first, 0.154 for the second.

Compared with C8A G58C U112C A121G, A6U G110U is lower in “polymerase ribozyme fitness (log ratio)” value: 1.27 for the first, -1.36 for the second.

Going from C56G U92C to G110A A119C, the “polymerase ribozyme fitness (log ratio)” value falls from -1.23 to -2.25.

Going from C85G A108G to G69U C89U, the “polymerase ribozyme fitness (log ratio)” value rises from -3.15 to -0.148.

Compared with A41U C76A, G60U C114A is higher in “polymerase ribozyme fitness (log ratio)” value: -1.89 for the first, -1.45 for the second.

Source: the RNAGym collection of RNA variant scans (doi:10.1073/pnas.2313332121)
